The target of the assay is Recombinant HLA-G antigen (human) (UniProt P17693). As to the kind of experiment: monoclonal phage ELISA, Fab on phage, anti-M13 HRP (selection threshold).

B1: T22A4 (Fab clone displayed on phage) (Fab, V domains shown)
VH: EVQLVESGGNWVQPGGSLRLSCAASGFSFRSYAMSWVRQAPGKGLEWVSSISGSGNSELYAGSVKGRFTISRDNSKNTLSLQLHSLRAEDTAMYYCAKFSAAVGFLPDYFDSWGQGTLVTVSS
VL: ELTLTQSPSSLSASVGDRVTITCQASHDISKYLNWYQQKSGKAPKLLIYDASNLETGVPSRFSGSGSGTDFTLTISSLQPEDFATYYCQQSYRTPLTFGGGTKLEIK
Take B1: the absorbance (OD450) was > 0.4 OD450.

B2: T23D5 (Fab clone displayed on phage) (Fab, V domains shown)
VH: QVQLQESGPGLVKPSETLSLTCTVSGGSIDRSSHYWGWIRQPPGKGLEWLGSIYYSGITYYNPSLKSRVTISVDTSRNQFSLTLSSVTAADTAVYYCARHGSYDSWAGRYKWDRFDPWGQGTPVTVSS
VL: ELQMTQSPSSLSASVGDRVTITCQASHDISKYLNWYQQKSGKAPKLLIYDASNLETGVPSRFSGSGSGTDFTLTISSLQPEDFATYYCQQSYSTPLTFGGGTKVEIK
With B2, the absorbance (OD450) was > 0.4 OD450.

(Values after patent EP4793288A1.)
